The values that follow come from the nanobody polyreactivity screen of Harvey et al. (2022).

This data set in a line: yeast display, Sf9 membrane polyspecificity reagent, FACS + sequencing; frameworks hold sequencing errors. The essentials:
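Galactose induction of a Saccharomyces cerevisiae BJ5465 synthetic nanobody display library ran 36–48 hours. The cells were then stained for 1 hour at 4 °C with 10% biotinylated, detergent-solubilized Sf9 membrane reagent, pulled down on streptavidin microbeads and FACS-sorted into low and high (top ~1%) gates on expression and reagent-binding fluorescence. Labels for polyreactivity follow the gate of origin.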
“QVQFVESGGGLVQAGGSLRLSCAASGSIFYRYTMGSYRQAPGKERELVAAISSRGGSTYYADSVKGRFTISRDNAKNTVYLQMNSLKPEDTAVYYCAARYFRNPVFVIMDYWGQGTQVTVSS”: the “polyreactivity (PSR sort gate)” value is recorded as “high polyreactivity”.
With “QVQLVESGGGLVQAGGSLRLSCAASGRIFYRYTMGWYRQAPGKERELVAAITRGGNTYYADSVKGRFTISRDNAKNTVYLQMNSLKPEDTAVYYCAKKAPSDRNNYWGQGTQVTVSS” the entry was “high polyreactivity”.
As to “QVQLVESGGGLVQAGGSLRLSCAASGRIFRKNVMGWYRQAPGKERELVAAIRWSGGGTYYADSVKGRFTISRDNAKNTVYLQMNSLKPEDTAVYYCAAVPTSSAYDYWGQGTQVTVSS”, the “polyreactivity (PSR sort gate)” value is listed as “high polyreactivity”.
As for “QVQLVESGGGLVQAGGSLRLSCAASGFIIDGYAMGWYRQAPGKERELVAVISQRGSNTYYADSVKGRFTISRDNAKNTVYLQMNSLKPEDTAVYYCAARYKQGDSTGGRMNYWGQGTQVTVSS”, the “polyreactivity (PSR sort gate)” value is “high polyreactivity”.
With “QVQLVESGGGLVQAGGSLRLSCAASGRTFAVNAMGWYRQAPGTERELVAAISLSGGRTYYADSVKGRFTISRDNAKNTVSLQMNSLKPEDTAVYYCAASRHFARHRGYYFRYDYWGQGTQVTVSS” the entry was “high polyreactivity”.
The entry for “QVQLVETGGGLVQAGGSLRLSCAASGSTFPRYAMVWSRQAPGKESEYVAVNWSGGSTYYADSVKGRFTISRDNAKNTVYLQMNSLKPEDTAVYYCAAEYHTLSKYSGYATHDYWGQGTQVTVSS” is “low polyreactivity”; for “QVQLVESGGGLVQAGGSLRLNCAASGRIFDVNAMGWYRQAPGKERELVAAITYSDGSTYYADSLKGRFTISRDTAKNTVYLQMNSLKPEDTAVYYCAATHEPVTPQPYGYWGQGTQVTVSS” it is “low polyreactivity”.
With “QVQLVESGGGLVQAGGSLRLSCAASGRIFWHNAMGWYRQAPGKERELVAAISSRGGSTSYADSVKGRFTISRDNAKNTVYLQMNSLKPEDTAVYYCNARNQGYYRVWGYRGDYWGQGTQVTVSS”, the “polyreactivity (PSR sort gate)” value is on record as “low polyreactivity”.
The entry for “QVQLLESGGGLVQAGGSLRLSCAASGSTFPRNAMGWYRQAPGKERELVATITSSGGGTYYADSVKGRFTISRDNAKNTVYLQMNSLKPEDTAVDYCNADGPAGDAFDYWGQGTQVTVSS” is “low polyreactivity”.
For “QVQLVESGGGLLQAGGSLRLSCAASGSTFPPYAMGWYRQAPGKERELVAAIDWSDGTTYYADSVKGRFTISRDNAKNTVYLQMNSLKPEDTAVYYCAASLSQSEYDYWGQGTQVTVSS”, the “polyreactivity (PSR sort gate)” value is “low polyreactivity”.
On to “QVQLVESGGGLVQAGGRLRLSCAASGLTFGGNAMGWYRQAPGKERELVAAISWSDDTTDYADSVKGLFTISRDNAKNTVYFQMNRLKPEDTAVYYCAARLPFEHVDYWGQGTQVTVSS”, for which the “polyreactivity (PSR sort gate)” value is “low polyreactivity”.
For the sequence “QVQLVESGGGLVQAGGRLRLSCAASGFTIRWYTMGWYRQAPGKERELVAAISRGGSTNYADSVKGRFTISRDNAKNTVYLQMNSLKPEDTAVYYCAATVYAFTYPYDYWGQGTQVTVSS”, the “polyreactivity (PSR sort gate)” value is recorded as “high polyreactivity”.
Take “QVQLVESGGGLVQAGGSLRLSCAASGRIFDSNALGWYRQAPGKERELVAAISYDGGSTYYADSVKGRFTISRDNAKNTVYLQMNSLKPEDTAVYYCAADDGWYYYYGYDYWGQGTQVTVSS”: the “polyreactivity (PSR sort gate)” value is “low polyreactivity”.
As for “EEELVESGGGLVQAGGSLRLSCAASGSIFTHYAMGWYRPAPGKERELVAAISWSGGSTYYADSVKGRFTISRDNAKKTVYLQMNSLKPEDTAVYYCAAETYWGDDYWGQGTQVTVSS”, the “polyreactivity (PSR sort gate)” value was “high polyreactivity”.
With “QVQHVESGGGLVQAGGSLRLSCAASGLIFWLNAMGWYRHEPGKEREMVATITAGGDDTNYADPVKGRFTISRDNAKNTVYLQMNSLKPEDTAVYYCAKSRTRSGHYGYDYWGQGTQVTVSS” the entry was “low polyreactivity”.
As for “QVQLVDSGRGLVQAGGSLRLSCAASGHIFLYYTMAWYRQAPGKERELVAGITIGGSTIYADSVKGRFTISRDNAKNSVYLQMNSMKPEDTAVYYCNVVNYVFIYSYWEYYYWGQGTEVTVSS”, the “polyreactivity (PSR sort gate)” value is “low polyreactivity”.
As for “QVQLVESGGGLVQAGGTLRLSCDASGRTFGYNAMGWYRQAPGKAREFDAAITWSGGSTYYADSVKGRFTISRDNAKNTVYLQMNSLKPEDTAVYYCAADLGRPLHGVAYGYWGQGTQVTVSS”, the “polyreactivity (PSR sort gate)” value is on record as “low polyreactivity”.
With “QVQLLDSGGGLVQAGGSLRLSCAASGFIFRPYPMACYRQSPGKERELVAPITGGGSTYYADSVKGRFTISRENAKNTVYLQMNSLKPEDTAVYYCNADRRRRSGGFAGWHFQRNDFWGQGTQVTVSS” the entry was “low polyreactivity”; with “QVQLVESGGGLVQAGGSLRLSCAASGFTFARNAMGWYRQAPGKERELVAGITSRGSSTSYADSVKGRFTISRDNAKNTVYLQMNSLKPEDTAVYYCAAVPRYRDRGQYGYWGQGTQVTVSS”, “high polyreactivity”; with “QVQLVESGGGLVQAGGSLRLSCAASGRIFFPYDMGWYRQAPGKERELVAAITNSGGRTYYADSVKGRFTISRDNAKNTVYLQMNSLKPEDTAVYYCAARYGSGGDYWGQGTQVTVSS”, “low polyreactivity”.
“QVQLVESGGGLVQAGGSLRLSCAASGSTLGRNAMGWDRQAPGKEREFVAAITYSTGSTYYADSVKGRFTISRDNAKNTVYVQMNSLKPEDTAVYYCAKGRLTRGYVTFEYWGQGTQVTGSS”: the “polyreactivity (PSR sort gate)” value is recorded as “high polyreactivity”.
Take “QVQLVESGGGLVQAGGSLRLSCAASGSIFIYYAMGWYRQAPGKERELVAAISSSGDSTNYADSVKGRFTISRDNAKNTVYLQMNSLKPEDTAVYYCAADPYYFYIWYWWPSFDYWGQGTQVTVSS”: the “polyreactivity (PSR sort gate)” value is reported as “low polyreactivity”.
With “QVQLVESGGGLVQAGGSLRLSCAASGITLQFYAIGWYRQAPGKERELVAAISISGGRTYYADSVKGRFTISRDNAKNTVYLQMNSLKPEDTAVYYCAAYLQRAYRYGYWGQGTQVTVSS” the entry was “high polyreactivity”; with “QVQLVESGGGLVQAGGSLRLSCAASGITFRYYAMGWYRQAPGKERELVATISRGVRTNYADSVKGRFTISRDNAKNTVYLQMNSLKPEDTAVYYCNADYASARRYDYWGQGTQVTVSS”, “high polyreactivity”; with “QVQLVESGGGLVQAGGSLRIICAASGFIFKYYAMGWYRQAPGKERELVAAISSGGSTKYADSVKGRFTISRDNAKNTVYLQMNSLIPEDTAVYYCNADWYWKYDYWGQGTQVTVSS”, “high polyreactivity”.
The entry for “QVQLVESGGGLVQAGGSLRLSCAASGSTFPVNTMGWYRQAPGKERELVAAITKNGANTYYADSVKGRFTLSRDNAKNTVFLQMNSLKPEDTAVYYCAARYVYGKSYSRWLVELDYWGQATQVTVSS” is “low polyreactivity”; for “QVQLVESGGGLVQAGGSLRLSCAASGRILCGNTMGWYRQAPGKERELVAAISWNGGGTYYADSVKGRFTISRDNAKNTVYLQMNSLKPEDTAVYYCAAYKEPYYEEYGYWGQGTQVTVSS” it is “low polyreactivity”.
With “QVQLVESGGGLVQAGGSLRLSCAASGITFDIYAMGWYRQAPGKVRELVAAISGSDGSTYYADSVKGRFTISRDNAKNTVYLQMNSLKPEDTAVYYGAAESEYAGTYESDYWGLGTQVTVSS” the entry was “low polyreactivity”.
Consider “QVQLVESGGGLVQAGGSLRLSCAASGSTFKIYAMGWYRQAPGKEREVVARITGRGGSTYYADSVKGRFTISRDNAKNTVYLQMNSLKPEDTAVYYCAAAKRYYSEMYWGQGTQVTVSS”, for which the “polyreactivity (PSR sort gate)” value is reported as “high polyreactivity”.
For “QVQLVESGGGLVQAGGSLRLSCAASGRIFRYYAMGWYIQAPGKERELVAAITRGGSTNYADSVKGRFTISRDNAKNTVYLQMNSLKPEDTAVYYCAARRQGRSGNGSWGQGTQVTVSS”, the “polyreactivity (PSR sort gate)” value is listed as “high polyreactivity”.
Take “QVQLVESGGGLVQAGGSLRLSCAASGSIFSPYAMGWYRQAPGKERELVAAIRWGGGGTYADSVKGRFTISRDNAKNTVYLQMNSLKPEDTAVYYCAARRRSRRGYDYWGQGTQVTVSS”: the “polyreactivity (PSR sort gate)” value is reported as “high polyreactivity”.
On to “QVQLVESGGGLVQAGGSLRLSCAASGFIFRYYALGWYRQAPGKERELVAAIDYSGGSTNYADSVKGRFTISRDNAKNTVYLQMNSLKPEDNAVYYCNAEYTWHRGYDYWGQGTQVTVSS”, for which the “polyreactivity (PSR sort gate)” value is reported as “low polyreactivity”.
“QVQLVESGGGLVQAGGSLRLSCAASGSIFNSYAMGWYIQAPGKERELFADITSSGGSTYYADSVKGRFTISRDNAKNTVYLQMNCLKPEDTAVYYCAASSPAFYGLRYNYWGQGTQVTVSS”: the “polyreactivity (PSR sort gate)” value is “low polyreactivity”.
On to “QVQLVESGGGLVQAGGSLRLSCAASGSIFVVYAMGWYRQAPGKERELVAGISDGDNTNYADSVKGRVTISRDNAKNTVYLQMNSLKPEDTAVYYCNADGTSRNLEGFDYWGQGTQVTVSS”, for which the “polyreactivity (PSR sort gate)” value is “low polyreactivity”.
With “QVQLVESGGGLVQAGGSLRLSCAASGFIFRSNAMGWYRQAPGKERELVAAISGRGCSTYYADSVKGRFTISRDNAKNTVYLQMNSLKPVDTAVYYCAKSTVWVLYGYWGQGTQVTVSS” the entry was “high polyreactivity”; with “QVQLVESGGGLVQAGGSLRLSCAASGRIFGYYAMGWYRLAPGKERELVAAITSGGRTTYADSVKGRFTISRDNAKNTVYVQMNSLKPEDTAVYYCAKEYPRYSSPYDYWGQGTQVTVSS”, “low polyreactivity”; with “QVQLVESGGGLVQAGGSLRLSCAASGFTFGYYAMGWYRQAPGKERELVAAINWSGGRTYYADSVKGRFTISRDNAMNTVYLQMNRLKPEDTAVYYCAASSRTKRYYWGQGTQVTVSS”, “high polyreactivity”.
As for “QVQRVVSGGGLVQAGGSLRLSCAASGSIFQGNAMGWYRQAPGQERELVAAIHRSDGRTYYADSVKGRFTISRDNAKNTVYLQMNSLKPEDTAVYYCKVDVLLVHDYVFYSWMDYWGQGSQVTVSS”, the “polyreactivity (PSR sort gate)” value is reported as “high polyreactivity”.
With “QVQLVESGGGLVQAGGSLRLSCAASGRTFIVYAMGWYRQAPGTERELVAGITRGSTTYADSVKGRFTISRDNATNTVYLQMNSLKPEDTAVYYCAARSSRRGPISEGDYWGQGTHVTVSS” the entry was “high polyreactivity”.
The entry for “QVPLQESGGGLVQAGGSLRLSCAASGTISYAPHMGWYRQAPGKERELVAGITIGGTTYYADSVKGRFTISRDNAKNTVYLQMNSLSPGDTAVYYCAAHSEQYTPFYYWGQGTQVTVSS” is “low polyreactivity”.
With “QVQLVESGGGLVQAGGSLRLSCAASGSIFYENMGWYRQAPGKERELVASISWSGTSTYADSVKGRFTISRDNAKNTVYLQMNSLKPEDTAVYYCAAGKNGYTYSRSYSYGYWGQGTQVTVSS” the entry was “high polyreactivity”.
